In patent US5723299:

Key:
[1] = molecular target: mouse somatostatin receptor SSTR2 (mouse); assay: radioligand binding to CHO cells transfected with mouse SSTR2, gamma counting
[2] = molecular target: mouse somatostatin receptor SSTR2 (mouse); assay: radioligand binding to CHO cells transfected with mouse SSTR2 in the presence of 1 µM somatostatin-14
[3] = molecular target: human somatostatin receptor SSTR1 (human); assay: radioligand binding to CHO cells transfected with human SSTR1, gamma counting
[4] = molecular target: human somatostatin receptor SSTR1 (human); assay: radioligand binding to CHO cells transfected with human SSTR1 in the presence of 1 µM somatostatin-14

Substance: [125I]iodo-Tyr11-somatostatin-14 (from UniProt P61278) (peptide)
- control binding (radiolabeled ligand bound in the absence of inhibitor) [1]: 2080 cpm
- non-specific binding (radiolabeled ligand bound in the presence of 1 µM somatostatin-14) [2]: 225 cpm
- control binding (radiolabeled ligand bound in the absence of inhibitor) [3]: 1420 cpm
- non-specific binding (radiolabeled ligand bound in the presence of 1 µM somatostatin-14) [4]: 225 cpm
